The RNAGym collection of RNA variant scans (doi:10.7554/elife.90254)

B1: OR4K15 (parent)
chain: GUUAACGGUCAUAGGCCAUGGAAACUAGGAGCACCAUUUCGCUGCCAGUGAAGAAAUGAACAAAGAAAAUCUGGGCCAGGCAGGCAUCAAAAGAAAUAGUCUUGCGCUCAACCAGAAAGUCUGUAAUCAUUUUAAGGGUA

Variants of: B1
Assay: self-cleavage, relative activity (ratio to wild type); higher = more cleavage; in vitro, sequencing; the parent is a self-cleaving ribozyme

Question: For A23U U43A, which self-cleavage is on record?
Answer: The self-cleavage was 1.44.

Question: With A11G U19A as the variant, how does the self-cleavage read?
Answer: Its self-cleavage is 1.08.

Question: With C85G U130C as the variant, how does the self-cleavage read?
Answer: Its self-cleavage is 0.34.

Question: Which self-cleavage does the source give for U9A U57C here?
Answer: Its self-cleavage is 1.02.

Question: For A66G U103C, which self-cleavage is on record?
Answer: Its self-cleavage is 1.06.

Question: For A51C U102A, which self-cleavage is on record?
Answer: The self-cleavage was 0.84.

Question: With C32A G73U as the variant, how does the self-cleavage read?
Answer: The self-cleavage was 0.21.

Question: With A55G U133C as the variant, how does the self-cleavage read?
Answer: The self-cleavage was 1.83.

Question: Which self-cleavage does the source give for A114U A125U here?
Answer: The self-cleavage was 0.08.

Question: Which self-cleavage does the source give for A47G U108A here?
Answer: The self-cleavage was 0.01.

Question: For G44A U127C, which self-cleavage is on record?
Answer: Its self-cleavage is 1.58.

Question: Which self-cleavage does the source give for U19A U57C here?
Answer: The self-cleavage was 0.67.

Question: For A11U A126G, which self-cleavage is on record?
Answer: The self-cleavage was 0.81.

Question: Which self-cleavage does the source give for U103C U127C here?
Answer: Its self-cleavage is 0.26.

Question: Which self-cleavage does the source give for A98G U127C here?
Answer: Its self-cleavage is 0.39.

Question: For A56G A117U, which self-cleavage is on record?
Answer: Its self-cleavage is 1.27.

Question: For U57C U87A, which self-cleavage is on record?
Answer: The self-cleavage was 0.98.

Question: For G99A U102A, which self-cleavage is on record?
Answer: Its self-cleavage is 0.1.

Question: For A56G A82C, which self-cleavage is on record?
Answer: The self-cleavage was 0.15.

Question: With A63G A90G as the variant, how does the self-cleavage read?
Answer: Its self-cleavage is 1.6.

Question: Which self-cleavage does the source give for A78G A111G here?
Answer: Its self-cleavage is 0.03.

Question: With A91G A140G as the variant, how does the self-cleavage read?
Answer: Its self-cleavage is 1.21.

Question: With U57C A114G as the variant, how does the self-cleavage read?
Answer: Its self-cleavage is 0.12.

Question: Which self-cleavage does the source give for G50A A51G here?
Answer: The self-cleavage was 1.82.

Question: For U39G U102C, which self-cleavage is on record?
Answer: The self-cleavage was 2.67.

Question: For U9C A91C, which self-cleavage is on record?
Answer: Its self-cleavage is 2.12.

Question: With A82G U124C as the variant, how does the self-cleavage read?
Answer: The self-cleavage was 0.27.

Question: For U38A U49C, which self-cleavage is on record?
Answer: Its self-cleavage is 1.72.

Question: With U108A A118G as the variant, how does the self-cleavage read?
Answer: Its self-cleavage is 0.

Question: With G106U U132A as the variant, how does the self-cleavage read?
Answer: Its self-cleavage is 0.03.

Question: With A36G A91U as the variant, how does the self-cleavage read?
Answer: The self-cleavage was 1.95.

Question: For A52U G137A, which self-cleavage is on record?
Answer: Its self-cleavage is 1.58.

Question: For A68G A91U, which self-cleavage is on record?
Answer: Its self-cleavage is 1.44.

Question: For G104A A116U, which self-cleavage is on record?
Answer: The self-cleavage was 0.

Question: For A18G A140G, which self-cleavage is on record?
Answer: Its self-cleavage is 0.55.

Question: For A18C A140G, which self-cleavage is on record?
Answer: The self-cleavage was 0.94.

Question: With A13G C109A as the variant, how does the self-cleavage read?
Answer: Its self-cleavage is 0.6.

Question: With A118G U133A as the variant, how does the self-cleavage read?
Answer: Its self-cleavage is 1.28.

Question: For A55G U72G, which self-cleavage is on record?
Answer: Its self-cleavage is 0.25.

Question: Which self-cleavage does the source give for U9C A78G here?
Answer: Its self-cleavage is 0.32.

Question: With U102C U120C as the variant, how does the self-cleavage read?
Answer: Its self-cleavage is 2.34.

Question: With A23G G28A as the variant, how does the self-cleavage read?
Answer: The self-cleavage was 0.93.

Question: With U26C U39C as the variant, how does the self-cleavage read?
Answer: Its self-cleavage is 1.63.

Question: For A18U U131C, which self-cleavage is on record?
Answer: Its self-cleavage is 0.74.

Question: With A89C A116G as the variant, how does the self-cleavage read?
Answer: Its self-cleavage is 0.19.

Question: With U2C U57G as the variant, how does the self-cleavage read?
Answer: Its self-cleavage is 0.66.

Question: Which self-cleavage does the source give for G74U here?
Answer: Its self-cleavage is 0.05.

Question: Which self-cleavage does the source give for A54C U120C here?
Answer: The self-cleavage was 0.93.

Question: With A36C A114G as the variant, how does the self-cleavage read?
Answer: The self-cleavage was 0.9.

Question: For A23G U102A, which self-cleavage is on record?
Answer: The self-cleavage was 0.82.

Question: With C85U U87C as the variant, how does the self-cleavage read?
Answer: The self-cleavage was 1.47.

Question: With A90U U130C as the variant, how does the self-cleavage read?
Answer: Its self-cleavage is 1.3.

Question: Which self-cleavage does the source give for C42A A52G here?
Answer: Its self-cleavage is 1.41.

Question: For A62G A140G, which self-cleavage is on record?
Answer: Its self-cleavage is 1.36.

Question: For U57C U72C, which self-cleavage is on record?
Answer: The self-cleavage was 0.04.

Question: Which self-cleavage does the source give for U19G U100A here?
Answer: Its self-cleavage is 0.74.

Question: Which self-cleavage does the source give for A24C U38C here?
Answer: Its self-cleavage is 1.26.

Question: For G53A G119U, which self-cleavage is on record?
Answer: The self-cleavage was 2.11.

Question: For A63G U131C, which self-cleavage is on record?
Answer: The self-cleavage was 1.2.

Question: For G15A A51G, which self-cleavage is on record?
Answer: The self-cleavage was 1.52.

Question: With G74A G115U as the variant, how does the self-cleavage read?
Answer: Its self-cleavage is 0.03.

Question: Which self-cleavage does the source give for U102A A111G here?
Answer: Its self-cleavage is 0.03.

Question: For A95C A96G, which self-cleavage is on record?
Answer: Its self-cleavage is 1.13.

Question: With U2G A33G as the variant, how does the self-cleavage read?
Answer: The self-cleavage was 0.43.

Question: For A36G A55G, which self-cleavage is on record?
Answer: The self-cleavage was 1.18.

Question: For C35A, which self-cleavage is on record?
Answer: Its self-cleavage is 1.58.

Question: For A59G A78U, which self-cleavage is on record?
Answer: The self-cleavage was 0.28.

Question: With G29A A86G as the variant, how does the self-cleavage read?
Answer: The self-cleavage was 1.65.

Question: With A22U A125G as the variant, how does the self-cleavage read?
Answer: Its self-cleavage is 0.52.

Question: For A69G C109A, which self-cleavage is on record?
Answer: Its self-cleavage is 0.37.

Question: With A30U A89U as the variant, how does the self-cleavage read?
Answer: Its self-cleavage is 1.55.

Question: With A54U U130C as the variant, how does the self-cleavage read?
Answer: The self-cleavage was 1.62.

Question: For C6U A33U, which self-cleavage is on record?
Answer: The self-cleavage was 1.05.

Question: For A18C A129G, which self-cleavage is on record?
Answer: Its self-cleavage is 0.75.

Question: With A60U A67G as the variant, how does the self-cleavage read?
Answer: The self-cleavage was 2.09.

Question: Which self-cleavage does the source give for U26C A69C here?
Answer: Its self-cleavage is 1.74.

Question: With A18U A95G as the variant, how does the self-cleavage read?
Answer: The self-cleavage was 1.96.

Question: Which self-cleavage does the source give for C45A U131C here?
Answer: Its self-cleavage is 0.26.

Question: With A55G U122G as the variant, how does the self-cleavage read?
Answer: The self-cleavage was 2.18.

Question: With A66U U102C as the variant, how does the self-cleavage read?
Answer: Its self-cleavage is 1.8.

Question: For A94U A98G, which self-cleavage is on record?
Answer: Its self-cleavage is 1.06.

Question: For A86U A89G, which self-cleavage is on record?
Answer: The self-cleavage was 2.16.

Question: With U87C U122A as the variant, how does the self-cleavage read?
Answer: The self-cleavage was 1.32.

Question: For G79U A96G, which self-cleavage is on record?
Answer: The self-cleavage was 0.1.
